Reference: paper PMC12753870, “A novel fully human anti-ROR1 antibody PBA-0405 optimized for ADCC, induces potent anti-tumor activity against both solid and hematological malignancies” (Frontiers in Immunology, 2025)
Values belong to the molecule of their own block, whether it stands above or below them.

Key:
recombinant FcγRIIA 167H = recombinant FcγRIIA 167H (UniProt P12318); assay: SPR; Biacore 8K; biotinylated FcγR immobilised on CAP chip, antibody as analyte in PBS-P+, 30 µL/min; steady state affinity; doses of 22.0405.aF 240-4000 nM for CD32a, 3-200 nM for CD16b; the legend of Supplementary Figure 2 says 'BLI or SPR'
recombinant FcγRIIIB = recombinant FcγRIIIB (UniProt O75015); assay: as above
recombinant FcγRI = recombinant FcγRI (UniProt P12314); assay: SPR; Biacore 8K; biotinylated FcγR immobilised on CAP chip, antibody as analyte in PBS-P+, 30 µL/min; 1:1 Langmuir fit, KD = koff/kon; doses of 22.0405.aF 8-500 nM for CD64, 31-2000 nM for CD32b; the legend of Supplementary Figure 2 says 'BLI or SPR'
recombinant FcγRII B/C = recombinant FcγRII B/C (UniProt P31994); assay: as above
[1] = target: recombinant FcγRIIIA (CD16), allotype 158F (UniProt P08637); assay: SPR; Biacore 8K; biotinylated recombinant FcγR proteins immobilised on CAP chips; antibodies as analytes in PBS-P+ buffer, 30 μL/min; 1:1 Langmuir model
[2] = target: human ROR1 on transfected CHO-K1 cells (CHO-ROR1) (human) (UniProt Q01973)
[3] = target: ROR1 endogenously expressed on JeKo-1 cells (human (endogenous in JeKo-1)) (UniProt Q01973)
[4] = target: ROR1 endogenously expressed on JeKo-1 cells (human (endogenous in JeKo-1)) (UniProt Q01973); remark: listed apart in the source
[5] = target: recombinant FcγRIIIA (CD16), allotype 158V (UniProt P08637); assay: SPR; Biacore 8K; biotinylated recombinant FcγR proteins immobilised on CAP chips; antibodies as analytes in PBS-P+ buffer, 30 μL/min; 1:1 Langmuir model
[6] = target: T1, recombinant Kringle (KRD) domain of human ROR1 (Homo sapiens, UniProt Q01973); assay: BLI; Octet RED384; antibodies immobilised on AR2G sensors; dipped in 500 nM recombinant Ig-like, Frizzled or Kringle domain for 150 s, dissociation 200 s; conditions: both partners purified
T1 construct: ROR1, human, Kringle (KRD) domain; source: bought: Acro Biosystems

[7] = target: T2, recombinant Ig-like (IG) domain of human ROR1 (aa 39–151) (Homo sapiens, UniProt Q01973); assay: as above; conditions: both partners purified
T2 construct: ROR1, human, Ig-like domain, aa 39–151; source: bought: Acro Biosystems

[8] = target: T3, human ROR2 on transfected CHO-K1 cells (CHO-ROR2) (Homo sapiens, UniProt Q01974); assay: flow cytometry on cells; antibody titrated on CHO-K1 cells transfected with ROR1, ROR2 or empty vector, or on cells expressing ROR1 endogenously (JeKo-1); 30 min on ice; detected with APC goat anti-human IgG Fcγ; conditions: one partner purified
T3 construct: receptor tyrosine kinase-like orphan receptor 2 (ROR2), human; also called hROR-2; source: CHO-K1 cells, transfected, on cells

[9] = target: T4, human ROR1 on transfected CHO-K1 cells (CHO-ROR1) (Homo sapiens, UniProt Q01973); assay: as above; conditions: one partner purified
T4 construct: receptor tyrosine kinase-like orphan receptor 1 (ROR1), human; also called hROR1; CHO cells overexpressing ROR1; source: CHO-K1 cells, stably transfected, on cells

[10] = target: T5, recombinant human ROR1/Fc (full-length extracellular domain of ROR1) (Homo sapiens, UniProt Q01973); assay: BLI; Octet RED384; antibodies captured on FAB2G (anti-hIgG CH1) biosensors at 5 μg/mL; ROR/Fc as analyte 200–3.13 nM in 10× Kinetics Buffer; 200 s association, 500 s dissociation; 1:2 (bivalent analyte) model; apparent KD = koff1/kon1; conditions: both partners purified
T5 construct: receptor tyrosine kinase-like orphan receptor 1 (ROR1), human, full-length extracellular domain; Fitted as a bivalent analyte (1:2 model); also called hROR1; recombinant extracellular part of ROR1; source: bought: R&D Systems

[11] = target: T6, recombinant mouse ROR1/Fc (Mus musculus, UniProt Q9Z139); assay: as above; conditions: both partners purified
T6 construct: ROR1, mouse; also called mROR1; source: bought: R&D Systems
T6 sequence (Q9Z139 30-406): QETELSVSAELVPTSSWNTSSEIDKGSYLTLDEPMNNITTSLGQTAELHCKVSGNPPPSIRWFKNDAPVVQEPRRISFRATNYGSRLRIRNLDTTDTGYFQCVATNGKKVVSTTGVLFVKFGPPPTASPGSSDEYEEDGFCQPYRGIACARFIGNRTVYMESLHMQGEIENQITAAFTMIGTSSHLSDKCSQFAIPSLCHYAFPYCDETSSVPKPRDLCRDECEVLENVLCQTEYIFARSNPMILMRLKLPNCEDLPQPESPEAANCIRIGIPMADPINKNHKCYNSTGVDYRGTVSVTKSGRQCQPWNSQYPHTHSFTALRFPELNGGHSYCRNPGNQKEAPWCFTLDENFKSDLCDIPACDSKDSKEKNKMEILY

recombinant FcγRIIIA (CD16), allotype 158F, sequence (P08637 17-208): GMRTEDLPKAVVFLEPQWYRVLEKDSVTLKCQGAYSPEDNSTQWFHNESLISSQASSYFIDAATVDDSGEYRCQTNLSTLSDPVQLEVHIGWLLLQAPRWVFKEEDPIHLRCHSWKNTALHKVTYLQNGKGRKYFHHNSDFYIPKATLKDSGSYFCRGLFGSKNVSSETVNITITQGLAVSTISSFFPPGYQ
recombinant FcγRIIIA (CD16), allotype 158V, sequence (P08637 17-208 F176V): as the sequence (P08637 17-208) above, with F160V counted along it
recombinant FcγRI, sequence (P12314 16-292): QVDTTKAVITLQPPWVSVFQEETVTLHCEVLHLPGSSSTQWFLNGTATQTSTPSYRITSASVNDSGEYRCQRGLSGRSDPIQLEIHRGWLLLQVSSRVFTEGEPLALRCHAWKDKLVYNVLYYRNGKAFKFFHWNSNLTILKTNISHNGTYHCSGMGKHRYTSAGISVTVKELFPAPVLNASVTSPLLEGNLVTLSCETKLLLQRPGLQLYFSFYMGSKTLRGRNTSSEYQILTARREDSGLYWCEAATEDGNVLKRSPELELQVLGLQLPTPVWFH
recombinant FcγRIIIB, sequence (O75015 17-200): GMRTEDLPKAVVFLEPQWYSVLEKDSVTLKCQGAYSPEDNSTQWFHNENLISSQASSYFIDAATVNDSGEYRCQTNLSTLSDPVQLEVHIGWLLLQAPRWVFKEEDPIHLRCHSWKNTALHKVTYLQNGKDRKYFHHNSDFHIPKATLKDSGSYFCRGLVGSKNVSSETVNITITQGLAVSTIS
recombinant FcγRII B/C, sequence (P31994 43-217): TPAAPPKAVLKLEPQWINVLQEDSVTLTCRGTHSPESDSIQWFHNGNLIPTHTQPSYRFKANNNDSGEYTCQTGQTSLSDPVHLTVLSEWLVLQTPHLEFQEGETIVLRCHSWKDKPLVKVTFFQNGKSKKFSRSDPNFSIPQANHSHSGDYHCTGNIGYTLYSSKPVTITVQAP
recombinant FcγRIIA 167H, sequence (P12318 34-217): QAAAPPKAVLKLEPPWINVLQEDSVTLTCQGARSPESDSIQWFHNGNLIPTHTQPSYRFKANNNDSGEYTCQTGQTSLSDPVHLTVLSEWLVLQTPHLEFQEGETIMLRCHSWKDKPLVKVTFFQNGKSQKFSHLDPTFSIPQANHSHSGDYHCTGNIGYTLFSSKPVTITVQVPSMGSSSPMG

- Kd (recombinant FcγRIIA 167H): 2200 nM
- Kd (recombinant FcγRIIIB): > 4000 nM
- Kd (recombinant FcγRI): 0.054 nM
- Kd (recombinant FcγRII B/C): > 4000 nM
Molecule: zilovertamab-like antibody

- Kd [1]: 3400 nM
Molecule: zilovertamab-like antibody (anti-ROR1 mAb mimicking zilovertamab, humanized native IgG1)

- NK cell-mediated ADCC towards Raji cells overexpressing human ROR1 (Raji-ROR1); EC50; no statistically significant ADCC towards wild-type Raji cells [2]: 0.002 nM
- ADCC by healthy donor NK cells against primary B-CLL cells (65%–99% ROR1-positive); EC50 [4]: 0.018 nM
- Kd [1]: 57 nM
B1: 22.0405.aF (afucosylated form of 22.0405, fully human anti-ROR1 IgG1) (antibody, V domains shown)
VH: EVQLLESGGGLVQPGGSLRLSCAASGFTFHKYGMAWVRQAPGKGLEWVSSIDDRGRYTYYADSVKGRFTISRDNSKNTLYLQMNSLRAEDTAVYYCARGSYIIWSALDYWGQGTLVTVSS
VL: DIQMTQSPSSLSASVGDRVTITCRPNQNIATYINWYQQKPGKAPKLLIYHDNKRPSGVPSRFSGSGSGTDFTLTISSLQPEDFATYYCQQYEKLPWTFGQGTKVEIK
- tumor cell killing with total PBMCs as effector cells; EC50 [3]: 0.02 nM

- Kd [1]: 690 nM
- Kd [5]: 217 nM
- binding result [6]: no binding (tested: 500 nM)
- binding result [7]: no binding (tested: 500 nM)
- binding result [8]: no binding
- EC50 [9]: 0.56 nM
- Kd [10]: 60 nM
- Kd [11]: 240 nM
B2: 22.0405 (native, fucose-containing fully human anti-ROR1 IgG1 mAb) (antibody, V domains shown)
VH: EVQLLESGGGLVQPGGSLRLSCAASGFTFHKYGMAWVRQAPGKGLEWVSSIDDRGRYTYYADSVKGRFTISRDNSKNTLYLQMNSLRAEDTAVYYCARGSYIIWSALDYWGQGTLVTVSS
VL: DIQMTQSPSSLSASVGDRVTITCRPNQNIATYINWYQQKPGKAPKLLIYHDNKRPSGVPSRFSGSGSGTDFTLTISSLQPEDFATYYCQQYEKLPWTFGQGTKVEIK
notes: human IgG1 heavy chain constant region; IgG1; source: CHOK1 cells (BioIntron, China)
